Assay [1] concerns the target T1, ROR1 antigen (UniProt Q01973 30-406, limits assumed).
T1 construct: Soluble antigen of the Octet binning and of the SPR assay
In words: SPR, binding to ROR1.

Assay [2] has as its target T1, ROR1 antigen. In words: SPR on ROR1.
In assay [3] the target is T2, ROR1 on cells (UniProt Q01973 30-937).
T2 construct: whole, on cells; also called ROR1 endogenous expressed tumor cell A549; ROR1-positive tumor cell lines
Nature of the assay: flow cytometry (gMFI) on A549 cells. A general note: Flow cytometry measures light scatter and fluorescence of single cells or particles in a stream.

In assay [4] the target is T2, ROR1 on cells. In words: flow cytometry (gMFI) on MDA-MB-231 cells.
The next assay addresses T3, huMUC16, AA13789-14451.
T3 construct: also called MUC16 Antigen (human MUC16 AA13789-14451)
T3 chain: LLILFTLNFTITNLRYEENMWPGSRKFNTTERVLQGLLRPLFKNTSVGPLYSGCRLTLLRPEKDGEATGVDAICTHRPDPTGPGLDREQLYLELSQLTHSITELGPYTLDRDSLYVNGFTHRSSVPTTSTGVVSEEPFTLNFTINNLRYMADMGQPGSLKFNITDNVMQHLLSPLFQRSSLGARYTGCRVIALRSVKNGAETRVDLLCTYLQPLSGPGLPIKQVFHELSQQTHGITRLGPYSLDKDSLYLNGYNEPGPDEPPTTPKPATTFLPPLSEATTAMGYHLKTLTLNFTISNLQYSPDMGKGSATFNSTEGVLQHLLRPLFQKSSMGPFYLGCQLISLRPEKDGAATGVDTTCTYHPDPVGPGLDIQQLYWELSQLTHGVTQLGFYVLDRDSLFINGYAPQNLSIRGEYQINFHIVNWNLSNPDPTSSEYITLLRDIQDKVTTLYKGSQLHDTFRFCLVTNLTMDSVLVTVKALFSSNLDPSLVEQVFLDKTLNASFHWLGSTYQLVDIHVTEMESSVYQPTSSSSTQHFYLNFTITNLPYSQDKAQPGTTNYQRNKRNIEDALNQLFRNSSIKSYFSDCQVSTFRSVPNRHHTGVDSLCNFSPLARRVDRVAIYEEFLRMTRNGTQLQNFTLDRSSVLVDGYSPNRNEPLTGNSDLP
In words: binding ELISA on huMUC16 AA13789-14451. On the technique in general: In an ELISA, binding on a coated surface is turned into a signal by an enzyme label.

The target in assay [5] is T4, human MUC16 on cells (human, UniProt Q8WXI7 1-14507).
T4 construct: whole, on cells; also called huMUC16; MUC16 on OVCAR3 and SNU216 cells
In words: flow cytometry (GMFI) on OVCAR3 cells, nM is the unit of the x axis Log10[Ab] (nM).

The target of assay [6] is T4, human MUC16 on cells. In words: flow cytometry (GMFI) on OVCAR3 cells; same value as in FIG. 11A, nM is the unit of the x axis.
Assay [7] concerns the target T2, ROR1 on cells. Nature of the assay: flow cytometry (gMFI) on A549 cells. The source holds these as a separate data set.
The target in the next assay is T5, huMUC16, AA14198-14507.
T5 chain: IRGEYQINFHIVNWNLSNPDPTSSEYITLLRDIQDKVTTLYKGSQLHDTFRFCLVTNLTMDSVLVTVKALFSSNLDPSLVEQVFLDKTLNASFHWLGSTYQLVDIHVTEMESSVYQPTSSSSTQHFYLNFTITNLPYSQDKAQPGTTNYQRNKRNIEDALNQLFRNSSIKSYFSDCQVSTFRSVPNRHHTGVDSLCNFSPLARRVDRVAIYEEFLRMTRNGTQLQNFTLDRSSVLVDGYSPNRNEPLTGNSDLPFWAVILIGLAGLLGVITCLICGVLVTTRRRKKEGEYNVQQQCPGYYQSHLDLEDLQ
Nature of the assay: binding ELISA on huMUC16 AA14198-14507.

In assay [8] the target is T4, human MUC16 on cells. Nature of the assay: flow cytometry (MFI GeoMean) on OVCAR3 cells, nM is the unit of the x axis Log10[Ab] (nM).
Assay [9] deals with T4, human MUC16 on cells. In words: flow cytometry (MFI GeoMean) on SNU216 cells, nM is the unit of the x axis Log10[Ab] (nM).
In assay [10] the target is T6, HEK293-MUC16 (13810-14507) (human, UniProt Q8WXI7 13810-14507).
T6 construct: range 13810-14507; also called MUC16 overexpressed HEK293 cells
T6 sequence: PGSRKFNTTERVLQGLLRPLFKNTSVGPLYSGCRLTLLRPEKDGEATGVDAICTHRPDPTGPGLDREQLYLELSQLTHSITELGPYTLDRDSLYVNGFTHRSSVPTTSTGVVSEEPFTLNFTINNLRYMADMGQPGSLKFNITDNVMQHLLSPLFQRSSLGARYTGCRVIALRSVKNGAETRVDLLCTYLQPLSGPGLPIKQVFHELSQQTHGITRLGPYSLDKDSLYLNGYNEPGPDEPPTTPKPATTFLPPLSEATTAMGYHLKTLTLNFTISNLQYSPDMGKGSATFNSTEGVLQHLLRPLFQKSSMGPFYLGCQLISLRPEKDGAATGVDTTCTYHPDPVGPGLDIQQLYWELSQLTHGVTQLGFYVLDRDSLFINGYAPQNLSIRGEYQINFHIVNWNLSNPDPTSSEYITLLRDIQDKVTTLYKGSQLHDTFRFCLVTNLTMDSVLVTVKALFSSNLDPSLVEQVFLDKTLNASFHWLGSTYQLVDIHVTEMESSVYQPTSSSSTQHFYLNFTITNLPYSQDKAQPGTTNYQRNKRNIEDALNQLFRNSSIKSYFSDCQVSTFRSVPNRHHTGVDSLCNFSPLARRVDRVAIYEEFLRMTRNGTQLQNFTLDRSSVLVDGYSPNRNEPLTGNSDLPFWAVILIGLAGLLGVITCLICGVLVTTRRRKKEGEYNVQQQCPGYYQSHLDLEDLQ
In words: flow cytometry (MFI GeoMean) on HEK293-MUC16 (13810-14507) cells, nM is the unit of the x axis Log10[Ab] (nM).

In assay [11] the target is T1, ROR1 antigen. Nature of the assay: SPR on ROR1. The source holds these as a separate data set.
The target of assay [12] is T1, ROR1 antigen. Nature of the assay: SPR on ROR1. The source holds these as a separate data set.

Like-named read-outs stand apart in the source and are kept apart here.

Results on seven molecules are retold here after patent US20260078196A1 (TJ BIOPHARMA SHANGHAI, published 2026).

B1: 4B-8F2 (humanized) or 4B-h8F2 (bispecific antibody, human IgG1, kappa)
heavy: not shown
light: DIVMTQTPLSLSVTPGQPASISCKSSQSLLHSNGKTYLNWYLQKPGQSPQLLIYLVSKLESGVPDRFSGSGSGTDFTLKISRVEAEDVGVYYCLQATYFPYTFGQGTKLEIKRTVAAPSVFIFPPSDEQLKSGTASVVCLLNNFYPREAKVQWKVDNALQSGNSQESVTEQDSKDSTYSLSSTLTLSKADYEKHKVYACEVTHQGLSSPVTKSFNRGEC
notes: Humanized ROR1 x 4-1BB BsAb
In the case of B1, the Kd (in general, the free concentration of one partner at which half of the binding sites on the other are occupied at equilibrium, for simple one-to-one binding) in the assay with ROR1 antigen [1] was 237 nM. Also, in the assay with ROR1 antigen [2], the dissociation rate constant (koff) – broadly, a measure of how fast the partners let go of each other – was determined as 0.0592 s⁻¹ and the on-rate constant (kon) – broadly, the second-order rate constant of association – was 250000 M⁻¹ s⁻¹. Further, the concentration for a half-maximal effect (EC50 (read off the curve)) (usually the midpoint of the concentration-response curve) with ROR1 on cells [3] was roughly 0.03 nM. Besides, the “EC50 (read off the curve)” value with ROR1 on cells [4] was roughly 0.01 nM.

B2: M16-1 (antibody, human IgG1, kappa, N297A, V domains shown)
VH: QVQLVESGGGLVKPGGSLRLSCAASGFTFSNYYMSWVRQAPGKGLEWISYISGRGSTIFYADSVKGRITISRDNAKNSLFLQMNSLRAEDTAVYFCVKDRGGYSPYWGQGTLVTVSS
VL: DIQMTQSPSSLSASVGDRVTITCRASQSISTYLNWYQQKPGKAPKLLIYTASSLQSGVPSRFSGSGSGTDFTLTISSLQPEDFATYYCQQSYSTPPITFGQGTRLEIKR
notes: also called benchmarker antibody M16-1
Consider B2, for which, in the assay with huMUC16, AA13789-14451, the binding result was “binds”. Moreover, the concentration giving a half-maximal response (EC50) with human MUC16 on cells [5] and with human MUC16 on cells [6] was 0.192 nM in each case.

B3: 8F2 (antibody, V domains shown)
VH: EVQLQQSGPELVKPGASVKMSCKASGYTFTTYVMHWVKQKPGQGLEWIGYINPYNGGIRYNEKFKGKATLTSDKSSSTAYMELSSLTSEDSAVYYCARRERGVYYGMDEWGQGTSVTVSS
VL: DVVMTQTPLTLSVTIGQPASISCKSSQSLLHSNGKTYLNWLLQRPGQSPNLLIYLVSKLESGVPDRFSGSGSGTDFTLKISRVEAEDLGVYYCLQATYFPYTFGSGTKLEIK
notes: Anti-ROR1 mAb (chimeric section 9.1); also called anti-ROR1 mAb 8F2
As to B3, the concentration giving a half-maximal response (EC50 (read off the curve)) with ROR1 on cells [7] is roughly 0.02 nM.

B4: humanized 8F2 anti-ROR1 mAb (antibody, V domains shown)
VH: QVQLVQSGAEVKKPGASVKVSCKASGYTFTTYVMHWVRQAPGQGLEWMGYINPYNGGIRYNEKFKGRVTMTRDTSTSTVYMELSSLRSEDTAVYYCARRERGVYYGMDEWGQGTLVTVSS
VL: DIVMTQTPLSLSVTPGQPASISCKSSQSLLHSNGKTYLNWYLQKPGQSPQLLIYLVSKLESGVPDRFSGSGSGTDFTLKISRVEAEDVGVYYCLQATYFPYTFGQGTKLEIK
notes: also called h8F2
For B4, in the assay with ROR1 on cells [7], the binding result is given as “binds”.

B5: M16-2 (antibody, human IgG1, kappa, N297A, V domains shown)
VH: EVQLVESGGGLEQPGRSLRLSCTASGFAFGDHTMSWVRQAPGKGLEWVGFIRSRAYGGTTEYAASVKGRFTISRDDSKSIAYLQMDSLKTEDTAVYYCTSGGYDSSLHYYYYYHGMDVWGRGTTVTVSS
VL: not shown
notes: Benchmark anti-MUC16 antibody; also called benchmarker antibody M16-2
In the case of B5, the binding result in the assay with huMUC16, AA13789-14451 is “binds”; with huMUC16, AA14198-14507 it was “no binding (tested: 100 nM)”. The half-maximal effective concentration (EC50) – broadly, the concentration that produces a half-maximal response – with human MUC16 on cells [5] came to 0.257 nM; in the assay with human MUC16 on cells [8] it was 0.274 nM; with human MUC16 on cells [9], 0.152 nM; with human MUC16 on cells [6] it was 0.257 nM; in assay [10], 0.423 nM.

B6: 4B-BiR1(Humanized) or 4B-hBiR1 (bispecific antibody, human IgG1, kappa)
heavy: not shown
chain: DIVMTQTPLSLSVTPGQPASISCKSSQSLLHSNGKTYLNWYLQKPGQSPQLLIYLVSKLESGVPDRFSGSGSGTDFTLKISRVEAEDVGVYYCLQATYFPYTFGQGTKLEIKGGGGSGGGGSGGGGSQVQLVQSGAEVKKPGASVKVSCKASGYTFTTYVMHWVRQAPGQGLEWMGYINPYNGGIRYNEKFKGRVTMTRDTSTSTVYMELSSLRSEDTAVYYCARRERGVYYGMDEWGQGTLVTVSSAAEPKSSDKTHTCPPCPAPELLGGPSVFLFPPKPKDTLMISRTPEVTCVVVDVSHEDPEVKFNWYVDGVEVHNAKTKPREEQYNSTYRVVSVLTVLHQDWLNGKEYKCKVSNKALPAPIEKTISKAKGQPREPQVCTLPPSREEMTKNQVSLSCAVKGFYPSDIAVEWESNGQPENNYKTTPPVLDSDGSFFLVSKLTVDKSRWQQGNVFSCSVMHEALHNHYTQKSLSLSPGKGGGGSGGGGSGGGGSQVQLQESGGGLVQPGGSLRLSCAASGYTYSSNCMGWFRQAPGKGLEGVAVICTGGGSPSYADSVKGRFTISRDNAKNTLYLQMNSLRAEDTAVYYCAADLLRAGTPLSSYEFNYWGQGTLVTVSS
light: DIQMTQSPSSLSASVGDRVTITCRASQDIYSYLSWFQQKPGKAPKTLIYRANRLVDAVPSRFSGSGSGQDYTLTISSLQPEDFATYYCLQYDEFPYTFGQGTKLEIKRTVAAPSVFIFPPSDEQLKSGTASVVCLLNNFYPREAKVQWKVDNALQSGNSQESVTEQDSKDSTYSLSSTLTLSKADYEKHKVYACEVTHQGLSSPVTKSFNRGEC
notes: Humanized bi-paratopic ROR1 x 4-1BB antibody: h3C5 IgG half with VHH plus h8F2 scFv-Fc-VHH; also called 4-hiBiR1
As for B6, binding with ROR1 antigen [1] was characterised by a dissociation constant (Kd) of 12.1 nM. Also, in the assay with ROR1 antigen [11], the koff was found to be 0.00114 s⁻¹ and the kon worked out at 93600 M⁻¹ s⁻¹. Besides, the “EC50 (read off the curve)” value with ROR1 on cells [3] was roughly 0.1 nM. Further, in the assay with ROR1 on cells [4], the “EC50 (read off the curve)” value was roughly 0.06 nM.

B7: 4B-3C5 (humanized) or 4B-h3C5 (bispecific antibody, human IgG1, kappa)
heavy: not shown
light: DIQMTQSPSSLSASVGDRVTITCRASQDIYSYLSWFQQKPGKAPKTLIYRANRLVDAVPSRFSGSGSGQDYTLTISSLQPEDFATYYCLQYDEFPYTFGQGTKLEIKRTVAAPSVFIFPPSDEQLKSGTASVVCLLNNFYPREAKVQWKVDNALQSGNSQESVTEQDSKDSTYSLSSTLTLSKADYEKHKVYACEVTHQGLSSPVTKSFNRGEC
notes: Humanized ROR1 x 4-1BB BsAb; also called humanized 3C5 IgG x 4-1BB VHH
Turning to B7, the Kd in the assay with ROR1 antigen [1] came to 79.3 nM. Also, in the assay with ROR1 antigen [12], the off-rate constant (koff) is 0.00821 s⁻¹ and the association rate constant (kon) was 104000 M⁻¹ s⁻¹. Further, the concentration giving a half-maximal response (EC50 (read off the curve)) with ROR1 on cells [3] is roughly 0.03 nM. The concentration for a half-maximal effect (EC50 (read off the curve)) with ROR1 on cells [4] was roughly 0.03 nM.
